From article PMC3793935
The star is where a group is joined. NH(3-CONH2-4-NO2-Ph) = NC(=O)c1cc(N*)ccc1[N+](=O)[O-]

T1: GS-SplD, recombinant SplD protease containing the Gly-Ser dipeptide at the N-terminus (Staphylococcus aureus strain 8325-4) (UniProt Q2FXC5)
T1 sequence: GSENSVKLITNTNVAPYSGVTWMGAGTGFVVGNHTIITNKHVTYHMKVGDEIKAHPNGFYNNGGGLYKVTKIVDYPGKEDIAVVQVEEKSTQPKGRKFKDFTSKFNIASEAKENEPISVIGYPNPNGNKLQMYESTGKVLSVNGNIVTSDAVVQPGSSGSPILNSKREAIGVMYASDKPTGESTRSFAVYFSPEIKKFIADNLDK


Biological target: T1, GS-SplD, recombinant SplD protease containing the Gly-Ser dipeptide at the N-terminus (Staphylococcus aureus strain 8325-4)

Binder | Km of hydrolysis of the fluorescence-quenched peptide substrate by wild type SplD [µM]
{ABZ}-WLVS-{NH(3-CONH2-4-NO2-Ph)-NH2} [ABZ-Trp-Leu-Val-Ser-ANB-NH2] | 31.1
{ABZ}-WLTS-{NH(3-CONH2-4-NO2-Ph)-NH2} [ABZ-Trp-Leu-Thr-Ser-ANB-NH2] | 14.7
